In PMC3725402:

Key:
Format in all cases: biochemical, Arabidopsis thaliana
[1] = substrate: C[S+](CC[C@H](N)C(=O)O)C[C@H]1O[C@@H](n2cnc3c(N)ncnc32)[C@H](O)[C@@H]1O; assay: HPLC of dansylated N-methylputrescine, fluorimetric; conditions: PMT activity, co-substrate putrescine, 20 mM HEPES pH 8.0, 37°C, 2 mM DTT, 1 mM ascorbic acid
Source text: (§1) HPLC of dansylated N-methylputrescine, fluorimetric on AtSPDS1 (spermidine synthase 1)

[2] = substrate: NCCCCN; assay: as above; conditions: PMT activity, co-substrate SAM, 20 mM HEPES pH 8.0, 37°C, 2 mM DTT, 1 mM ascorbic acid
Source text: as §1

[3] = substrate: C[S+](CCCN)C[C@H]1O[C@@H](n2cnc3c(N)ncnc32)[C@H](O)[C@@H]1O; assay: HPLC of dansylated spermidine, fluorimetric; conditions: SPDS activity, co-substrate putrescine, 20 mM HEPES pH 8.0, 37°C, 2 mM DTT, 1 mM ascorbic acid
Source text: (§2) HPLC of dansylated spermidine, fluorimetric on AtSPDS1 (spermidine synthase 1)

[4] = substrate: NCCCCN; assay: HPLC of dansylated spermidine, fluorimetric; conditions: SPDS activity, co-substrate dcSAM, 20 mM HEPES pH 8.0, 37°C, 2 mM DTT, 1 mM ascorbic acid
Source text: as §2

Protein | Km [1] | kcat [1] | Km [2] | kcat [2] | Km [3] | kcat [3] | Km [4] | kcat [4]
AtSPDS1 (spermidine synthase 1) (Arabidopsis thaliana; D131I/Q107T/V134T) (protein, pQE-30, N-terminal His tag, E. coli M15[pREP4], HisTrap purified) MDAKETSATDLKRPREEDDNGGAATMETENGDQKKEPACFSTVIPGWFSEMSPMWPGEAHSLKVEKVLFQGKSDYQDVIVFQSATYGKVLVLDGVIQLTERDECAYTEMITHLPLCSIPNPKKVLVIGGGIGGTLREVARHASIEQIDMCEIDKMVVDVSKQFFPDVAIGYEDPRVNLVIGDGVAFLKNAAEGSYDAVIVDSSDPIGPAKELFEKPFFQSVARALRPGGVVCTQAESLWLHMDIIEDIVSNCREIFKGSVNYAWTSVPTYPSGVIGFMLCSTEGPDVDFKHPLNPIDESSSKSNGPLKFYNAEIHSAAFCLPSFAKKVIESKAN | 12 ± 0.60 µM | 0.081 s⁻¹ | 32 ± 1.88 µM | 0.081 s⁻¹ | – | – | – | –
AtSPDS1 (spermidine synthase 1) (Arabidopsis thaliana) (protein, pQE-30, N-terminal His tag, E. coli M15[pREP4], HisTrap purified) MDAKETSATDLKRPREEDDNGGAATMETENGDQKKEPACFSTVIPGWFSEMSPMWPGEAHSLKVEKVLFQGKSDYQDVIVFQSATYGKVLVLDGVIQLTERDECAYQEMITHLPLCSIPNPKKVLVIGGGDGGVLREVARHASIEQIDMCEIDKMVVDVSKQFFPDVAIGYEDPRVNLVIGDGVAFLKNAAEGSYDAVIVDSSDPIGPAKELFEKPFFQSVARALRPGGVVCTQAESLWLHMDIIEDIVSNCREIFKGSVNYAWTSVPTYPSGVIGFMLCSTEGPDVDFKHPLNPIDESSSKSNGPLKFYNAEIHSAAFCLPSFAKKVIESKAN | – | – | – | – | 18 ± 1.23 µM | 0.722 s⁻¹ | 220 ± 18.44 µM | 0.722 s⁻¹
AtSPDS1 (spermidine synthase 1) (Arabidopsis thaliana; D131I) (protein, pQE-30, N-terminal His tag, E. coli M15[pREP4], HisTrap purified) MDAKETSATDLKRPREEDDNGGAATMETENGDQKKEPACFSTVIPGWFSEMSPMWPGEAHSLKVEKVLFQGKSDYQDVIVFQSATYGKVLVLDGVIQLTERDECAYQEMITHLPLCSIPNPKKVLVIGGGIGGVLREVARHASIEQIDMCEIDKMVVDVSKQFFPDVAIGYEDPRVNLVIGDGVAFLKNAAEGSYDAVIVDSSDPIGPAKELFEKPFFQSVARALRPGGVVCTQAESLWLHMDIIEDIVSNCREIFKGSVNYAWTSVPTYPSGVIGFMLCSTEGPDVDFKHPLNPIDESSSKSNGPLKFYNAEIHSAAFCLPSFAKKVIESKAN | 28 ± 0.77 µM | 0.00448 s⁻¹ | 56 ± 4.45 µM | 0.00448 s⁻¹ | – | – | – | –
